“Also recorded” adds a separate entry of the source.
B1: recombinant annexin A6: recombinant human annexin A6 protein with C-terminal HIS tag (5186-A6-050, R&D systems); mouse protein from Northwestern core in one cohort (protein, UniProt P08133 2-673, looked up)
Annexin A6: AKPAQGAKYRGSIHDFPGFDPNQDAEALYTAMKGFGSDKEAILDIITSRSNRQRQEVCQSYKSLYGKDLIADLKYELTGKFERLIVGLMRPPAYCDAKEIKDAISGIGTDEKCLIEILASRTNEQMHQLVAAYKDAYERDLEADIIGDTSGHFQKMLVVLLQGTREEDDVVSEDLVQQDVQDLYEAGELKWGTDEAQFIYILGNRSKQHLRLVFDEYLKTTGKPIEASIRGELSGDFEKLMLAVVKCIRSTPEYFAERLFKAMKGLGTRDNTLIRIMVSRSELDMLDIREIFRTKYEKSLYSMIKNDTSGEYKKTLLKLSGGDDDAAGQFFPEAAQVAYQMWELSAVARVELKGTVRPANDFNPDADAKALRKAMKGLGTDEDTIIDIITHRSNVQRQQIRQTFKSHFGRDLMTDLKSEISGDLARLILGLMMPPAHYDAKQLKKAMEGAGTDEKALIEILATRTNAEIRAINEAYKEDYHKSLEDALSSDTSGHFRRILISLATGHREEGGENLDQAREDAQVAAEILEIADTPSGDKTSLETRFMTILCTRSYPHLRRVFQEFIKMTNYDVEHTIKKEMSGDVRDAFVAIVQSVKNKPLFFADKLYKSMKGAGTDEKTLTRIMVSRSEIDLLNIRREFIEKYDKSLHQAIEGDTSGDFLKALLALCGGED
modifications: C-terminal His tag
notes: recombinant human annexin A6 protein with C-terminal HIS tag (5186-A6-050, R&D systems); mouse protein from Northwestern core in one cohort
B2: annexin A6: annexin A6 with carboxyl-terminal turboGFP or tdTomato tag, expressed from plasmid electroporated into myofibers (protein, UniProt P14824 2-673, looked up)
Annexin A6: AKIAQGAMYRGSVHDFPEFDANQDAEALYTAMKGFGSDKESILELITSRSNKQRQEICQNYKSLYGKDLIEDLKYELTGKFERLIVNLMRPLAYCDAKEIKDAISGVGTDEKCLIEILASRTNEQMHQLVAAYKDAYERDLESDIIGDTSGHFQKMLVVLLQGTRENDDVVSEDLVQQDVQDLYEAGELKWGTDEAQFIYILGNRSKQHLRLVFDEYLKTTGKPIEASIRGELSGDFEKLMLAVVKCIRSTPEYFAERLFKAMKGLGTRDNTLIRIMVSRSELDMLDIREIFRTKYEKSLYSMIKNDTSGEYKKALLKLCGGDDDAAGQFFPEAAQVAYQMWELSAVSRVELKGTVCAANDFNPDADAKALRKAMKGIGTDEATIIDIVTHRSNAQRQQIRQTFKSHFGRDLMADLKSEISGDLARLILGLMMPPAHYDAKQLKKAMEGAGTDEKTLIEILATRTNAEIRAINEAYKEDYHKSLEDALSSDTSGHFRRILISLATGNREEGGENRDQAQEDAQVAAEILEIADTPSGDKTSLETRFMTVLCTRSYPHLRRVFQEFIKKTNYDIEHVIKKEMSGDVKDAFVAIVQSVKNKPLFFADKLYKSMKGAGTDEKTLTRVMVSRSEIDLLNIRREFIEKYDKSLHQAIEGDTSGDFMKALLALCGGED
modifications: C-terminal turboGFP or tdTomato tag
notes: annexin A6 with carboxyl-terminal turboGFP or tdTomato tag, expressed from plasmid electroporated into myofibers

Key:
wildtype myofibers = test: Laser-induced membrane injury, FM 4-64 dye uptake; assay type: cell-based, mouse; details: for FM 4-64 fluorescence area / dye uptake after laser injury: extracellular recombinant protein vs vehicle control
[1] = system: tibialis anterior muscles of wildtype mice; test: Cardiotoxin injury, intramuscular recombinant annexin A6, Evan's blue dye uptake; assay type: in vivo, mouse; details: for decrease in Evan's blue dye uptake (fluorescence over muscle area): 25 μg/ml intramuscular 2 hours before cardiotoxin, harvested 3 hours post injury, vs control muscle; for cardiotoxin-induced muscle damage, dye uptake by gross imaging: intramuscular pretreatment vs control
Experimental: (§1) Cardiotoxin Injury and analysis. […] Additionally, mice were injected intraperitoneally with Evans' blue dye at 5 μl/g body weight (E-2129; Sigma-Aldrich, St. Louis, Mo.) dissolved in phosphate-buffered saline at 10 mg/mL. […] Cardiotoxin injury was performed injecting 20 μl of a 10 μM cardiotoxin (discontinued, Sigma-Aldrich) solution in PBS in tibialis muscles in sedated animals (3% isoflurane, 0.8 l/min O2) 2 hours post pretreatment. Cardiotoxin was released down the midline of the muscle to induce a homogenous area of injury at the center of the muscle. 3 hours post cardiotoxin injection muscle was harvested and frozen in liquid nitrogen.
(§2) Immunofluorescence microscopy. Sections (10 μm thick) from the center of frozen-embedded muscles were collected on the cryostat (chamber, −20° C.; sample, −15° C.; catalog number CM1950; Leica, Wetzlar, Germany) for immunostaining. Tissues were fixed with 4% paraformaldehyde for 10 minutes on ice. Block and permeabilization were with 0.1% Triton (catalog number X-100; Sigma-Aldrich), 10% fetal bovine serum, and PBS for 60 minutes. For dystrophin detection, anti-dystrophin (ab15277; Abcam, Cambridge, Mass.) was used at a dilution of 1:100 overnight at 4° C. Sections were PBS rinsed, incubated with secondary antibody goat anti rabbit (A11008, Invitrogen) for 1 hour, PBS rinsed, and mounted in vectashield with DAPI (H-1200, Vector Laboratories). Imaging was performed using a Zeiss Axio Observer A1 microscope (Zeiss, Oberkochen, Germany), using a 10× objective. ZEN software (Zeiss, Jena, Germany) was used for acquiring images. Fluorescence quantitation and muscle area were performed using FIJI (NIH). Surface plots were created in FIJI (NIH). Fluorescence volume was quantified using Imaris Software v9.1.2.
(§3) Cardiotoxin Injury and analysis. […] Additionally, mice were injected with Evans' blue dye at 5 μl/g body weight (E-2129; Sigma-Aldrich, St. Louis, Mo.) dissolved in phosphate-buffered saline at 10 mg/mL cardiotoxin injury was performed injecting 20 μl of a 10 μM cardiotoxin solution in PBS in tibialis anterior or gastroc/soleus muscles in sedated animals (3% isoflurane, 0.8 l/min O2) 2 hours post pretreatment. Cardiotoxin was released down the midline of the muscle to induce a homogenous area of injury at the center of the muscle. 3 hours post cardiotoxin injection muscle was harvested.
Evans blue dye uptake. […] Fluorescence quantitation, surface plots, and muscle area were performed using FIJI (NIH). For whole tissue dye quantification, whole tissue was dissected, finely minced, weighed, and incubated at 55° C. in 1 mL of formamide for 2 hours. Spectrophotometric absorbance was measured at 620 nm.

[2] = system: dysferlin-null (Dysf129) myofibers; test: Laser-induced membrane injury, FM 4-64 dye uptake, dysferlin-null myofibers; assay type: cell-based, mouse; details: LGMD2B model
Experimental: Myofiber isolation. Flexor digitorum brevis (FDB) fibers were isolated with methods that were described previously in (Demonbreun and McNally, 2015; Demonbreun et al., 2016b; DiFranco et al., 2009). Briefly, fibers were dissociated in 0.2% BSA plus collagenase type II (Cat #17101, Thermo Fisher Scientific, Waltham, Mass.) for 60 minutes at 37 degrees in 10% CO2. Fibers were then moved to Ringers solution and placed on MatTek confocal microscopy dishes (Cat #P35G-1.5-14-C, MatTek, Ashland Mass.).
Multiphoton laser injury and imaging. Isolated fibers were subjected to laser-induced damage at room temperature using the Nikon A1R-MP multiphoton microscope. Imaging was performed using a 25×1.1 NA objective directed by the NIS-Elements AR imaging software. Green fluorescence protein (GFP) and FM 4-64 were excited using a 920 nm wavelength laser and emission wavelengths of 575 nm and 629 nm were collected respectively. […] Fluorescence intensity and cap area were measured using Fiji (NIH).
For recombinant protein studies, myofibers were isolated from mice as described above. […] Cap size was assessed from acquired images in FIJI. […] Images were acquired and quantitated as described above. FM 4-64 fluorescence at endpoint was measured using FIJI.

wildtype mice = test: Cardiotoxin injury, systemic retro-orbital recombinant annexin A6, Evan's blue dye uptake; assay type: in vivo, mouse; details: vs vehicle; for decrease in Evan's blue dye uptake, fluorescence imaging of tibialis anterior: 1 mg/kg retro-orbital 2 hours before cardiotoxin, 3 hours post injury
Experimental: as §1, §2, §3
Evans blue dye uptake. Sections (10 μm thick) from the center of frozen-embedded muscles were collected on the cryostat (chamber, −20° C.; sample, −15° C.; catalog number CM1950; Leica, Wetzlar, Germany). Tissue sections were fixed with methanol for 2 minutes, rinsed and mounted with vectashield with DAPI (H-1200, Vector Laboratories). Imaging was performed using a Zeiss Axio Observer A1 microscope (Zeiss, Oberkochen, Germany), using a 10× objective. ZEN software (Zeiss, Jena, Germany) was used for acquiring images. Fluorescence quantitation, surface plots, and muscle area were performed using FIJI (NIH). For whole tissue dye quantification, whole tissue was dissected, finely minced, weighed, and incubated at 55° C. in 1 mL of formamide for 2 hours. Spectrophotometric absorbance was measured at 620 nm.

| Molecule | FM 4-64 fluorescence area / dye uptake after laser injury (wildtype myofibers) | FM 4-64 fluorescence area / dye uptake after laser injury (wildtype myofibers; listed as rANXA6) | decrease in Evan's blue dye uptake (fluorescence over muscle area) [1] [%] | decrease in Evan's blue dye uptake (fluorescence over muscle area) ([1]; listed as rANXA6) | cardiotoxin-induced muscle damage, dye uptake by gross imaging [1] | cardiotoxin-induced muscle damage, dye uptake by gross imaging ([1]; listed as rANXA6) | FM 4-64 fluorescence area after laser injury ([2]; extracellular recombinant protein vs vehicle control) | decrease in Evan's blue dye uptake, fluorescence imaging of tibialis anterior (wildtype mice) [%] | decrease in Evan's blue dye uptake, fluorescence imaging of tibialis anterior (wildtype mice; listed as rANXA6) | reduction in dye uptake, whole tissue spectroscopic analysis of gastrocnemius/soleus (wildtype mice; 1 mg/kg retro-orbital pretreatment) [%] | Evan's blue dye uptake, fluorescence imaging (wildtype mice; retro-orbital post-treatment immediately after cardiotoxin) | Evan's blue dye uptake, fluorescence imaging (wildtype mice; retro-orbital pretreatment 2 hours prior to cardiotoxin) | FM 4-64 dye uptake after laser-induced injury (wildtype myofibers; plasmid overexpression of annexin A6-GFP vs mock electroporated control) | FM 4-64 dye uptake after laser injury ([2]; plasmid overexpression of annexin A6 vs control) |
| --- | --- | --- | --- | --- | --- | --- | --- | --- | --- | --- | --- | --- | --- | --- |
| B1 | reduced | significantly smaller; also recorded: significantly less | 50 | approximately 50% | reduced | decreased | reduced; also recorded: decreased | 38 | approximately 38% | 58 | significant decrease | significant decrease | – | – |
| B2 | – | – | – | – | – | – | – | – | – | – | – | – | decreased; also recorded: reduced | significant reduction; also recorded: reduced |

— patent US20220143136A1, “USE OF ANNEXINS IN PREVENTING AND TREATING MUSCLE MEMBRANE INJURY” (NORTHWESTERN UNIVERSITY, priority 2018, published 2022)
